Experimental findings from PMC5388898 (Biomacromolecules, 2017) are described below.

The target in the experiment is epidermal growth factor receptor (EGFR) on A431 cells (Homo sapiens, endogenous on A431 cells, UniProt P00533). The experiment can be described thus: flow cytometry on cells. A general note: A flow cytometer gives signals particle by particle.

B1: Fc5^FL-ELP^DB (VHH)
VHH: EVQLQASGGGLVQAGGSLRLSCAASGFKITHYTMGWFRQAPGKEREFVSRITWGGDNTFYSNSVKGRFTISRDNAKNTVYLQMNSLKPEDTADYYCAAGSTSTATPLRVDYWGKGTQVTVSS
In the case of B1, the binding result is on record as “no binding (tested: 1 μM)”.
